{"source": "patent US20200131274A1", "about": "(CRESCENDO BIOLOGICS, published 2020)", "binders": {"B1": {"name": "single VH domain antibody 1.8 (VHH)", "VHH": "EVQLLESGGGLVQPGGSLRLSCAASGFSFSSYAMSWVRQAPGKGLEWVSSIGENDGTTDYADSVKGRFTISRDNSKNTLYLQMNSLRVEDTAVYYCVKDGVHWGQGTLVTVSS", "notes": "Human single VH domain antibody (Humabody)"}, "B2": {"name": "single VH domain antibody 2.1 (VHH)", "VHH": "EVQLVESGGGVVQPGRSLRLSCAASGFSFSGYGMHWVRQAPGKGLEWVAYISYDGSNKYYADSVKGRFTISRDNSKNTLYLQMNSLRAEDTAVYYCAKDPAWGLRLGESSSYDFDIWGQGTMVTVSS", "notes": "Human single VH domain antibody (Humabody); tested with a C-terminal His tag; 71-95; also called VH 2.1; VH2.1"}, "B3": {"name": "single VH domain antibody 5.1 (VHH)", "VHH": "QVQLVESGGGVVQPGRSLRLSCAASGFTFNNYGMHWVRQAPGKGLEWVAIISYDGNTKYYTDSVKGRFTISRDNSKNTLYLQMNSLRVEDTAVYYCAKGLWPSDVWGQGTTVTVSS", "notes": "Human single VH domain antibody (Humabody); purified via the C-terminal His-tag, residues not tied"}, "B4": {"name": "single VH domain antibody 3.1 (VHH)", "VHH": "EVQLVESGGGVVQPGRSLRLSCAASGFPLISYGMHWVRQAPGKGLEWVAFMTYDGSNRYYADSVKGRFTISRDNSKNTLYLQMNSLRDEDTALYYCARDRIVGGRVPDAFDIWGQGTMVTVSS", "notes": "Human single VH domain antibody (Humabody); C-terminal His tag, residues not tied; also called VH3.1"}}, "key": {"[1]": {"target": "T1, recombinant human PSMA (R&D, cat. no. 4234-ZN) (human, UniProt Q04609 44-750)", "T1 construct": "Bought protein; also called rhPSMA; Recombinant PMSA", "T1 sequence (Q04609 44-750 limits assumed)": "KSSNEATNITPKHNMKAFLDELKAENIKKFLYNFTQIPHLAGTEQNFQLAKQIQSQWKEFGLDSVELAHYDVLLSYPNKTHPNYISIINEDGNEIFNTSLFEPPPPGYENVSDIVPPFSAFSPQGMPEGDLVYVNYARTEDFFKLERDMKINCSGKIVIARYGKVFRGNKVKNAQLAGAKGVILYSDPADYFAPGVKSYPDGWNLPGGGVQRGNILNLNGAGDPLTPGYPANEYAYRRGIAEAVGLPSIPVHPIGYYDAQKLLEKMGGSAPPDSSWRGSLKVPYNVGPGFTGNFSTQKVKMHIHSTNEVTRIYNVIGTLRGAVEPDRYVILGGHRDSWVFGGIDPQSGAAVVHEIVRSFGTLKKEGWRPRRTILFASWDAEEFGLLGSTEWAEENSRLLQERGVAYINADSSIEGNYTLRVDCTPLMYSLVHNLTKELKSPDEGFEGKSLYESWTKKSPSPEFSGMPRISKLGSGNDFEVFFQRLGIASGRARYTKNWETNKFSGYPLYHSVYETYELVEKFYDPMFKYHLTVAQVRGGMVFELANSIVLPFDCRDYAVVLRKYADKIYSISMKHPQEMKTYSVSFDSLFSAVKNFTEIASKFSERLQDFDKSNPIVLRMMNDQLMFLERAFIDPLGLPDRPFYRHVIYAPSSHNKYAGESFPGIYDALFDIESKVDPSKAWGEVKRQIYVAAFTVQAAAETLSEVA", "test": "Octet RED384 BLI, PSMA on sensor, Table 21 b"}, "[2]": {"target": "T2, human prostate specific membrane antigen (PSMA), full-length, on cells (human, UniProt Q04609 1-750)", "T2 sequence (Q04609 whole entry)": "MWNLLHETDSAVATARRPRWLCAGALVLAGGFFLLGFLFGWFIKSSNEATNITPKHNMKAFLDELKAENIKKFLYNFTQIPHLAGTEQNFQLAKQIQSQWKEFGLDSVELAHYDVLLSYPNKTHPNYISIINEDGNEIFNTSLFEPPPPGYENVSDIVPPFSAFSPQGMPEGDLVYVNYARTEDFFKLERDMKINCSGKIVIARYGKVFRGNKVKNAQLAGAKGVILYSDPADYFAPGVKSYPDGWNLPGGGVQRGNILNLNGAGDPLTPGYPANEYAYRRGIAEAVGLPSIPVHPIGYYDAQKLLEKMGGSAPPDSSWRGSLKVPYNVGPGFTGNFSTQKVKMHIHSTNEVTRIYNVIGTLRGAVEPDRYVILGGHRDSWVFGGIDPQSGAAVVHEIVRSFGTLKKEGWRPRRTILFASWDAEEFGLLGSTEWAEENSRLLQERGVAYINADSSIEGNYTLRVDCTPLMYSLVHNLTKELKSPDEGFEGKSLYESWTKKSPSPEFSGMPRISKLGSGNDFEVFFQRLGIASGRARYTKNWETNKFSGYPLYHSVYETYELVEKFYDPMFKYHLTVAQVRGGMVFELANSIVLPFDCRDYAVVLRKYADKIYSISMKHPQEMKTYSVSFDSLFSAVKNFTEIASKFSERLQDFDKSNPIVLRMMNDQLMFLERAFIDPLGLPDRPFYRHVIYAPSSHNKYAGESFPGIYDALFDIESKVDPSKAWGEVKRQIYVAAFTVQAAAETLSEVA", "test": "cell-based or functional assay"}, "[3]": {"target": "T1, recombinant human PSMA (R&D, cat. no. …)", "test": "Octet RED384 BLI, PSMA on sensor, Table 21 c; Table 21 part c), not part b) (0.85 nM for clone 1.8)"}, "[4]": {"target": "T2, human prostate specific membrane …", "test": "FMAT cell binding, huPSMA CHO 1A10 cells, after 1 day in human serum at 37 C"}, "[5]": {"target": "T1, recombinant human PSMA (R&D, cat. no. …)", "test": "Octet RED384 BLI, PSMA on sensor, VH series from 0.375 ug/ml"}, "[6]": {"target": "T2, human prostate specific membrane …", "test": "cell-based or functional assay", "remark": "listed apart in the source"}, "[7]": {"target": "T3, cynomolgus PSMA, full-length, on CHO cells (cynomolgus, UniProt A0A2K5VNZ0 1-750)", "test": "cell-based or functional assay"}, "[8]": {"target": "T2, human prostate specific membrane …", "test": "FMAT cell binding, huPSMA CHO 1A10 cells, after 4 days in human serum at 37 C"}, "[9]": {"target": "T2, human prostate specific membrane …", "test": "FMAT direct cell binding, CHO human PSMA cells"}, "[10]": {"target": "T2, human prostate specific membrane …", "test": "FMAT direct cell binding, LNCap cells"}, "[11]": {"target": "T2, human prostate specific membrane …", "test": "FMAT direct cell binding, DU145 PSMA cells"}, "[12]": {"target": "T2, human prostate specific membrane …", "test": "FMAT cell binding, huPSMA CHO 1A10 cells, after 7 days in human serum at 37 C"}, "[13]": {"target": "T1, recombinant human PSMA (R&D, cat. no. …)", "test": "Octet RED384 BLI, PSMA on sensor, Table 21 c"}, "[14]": {"target": "T3, cynomolgus PSMA, full-length, on CHO …", "test": "FMAT direct cell binding, CHO cyno PSMA cells"}, "[15]": {"target": "T2, human prostate specific membrane …", "test": "FMAT cell binding, huPSMA CHO 1A10 cells, after 0 days in human serum at 37 C"}, "[16]": {"target": "T1, recombinant human PSMA (R&D, cat. no. …)", "test": "Octet RED384 BLI, PSMA amine-coupled to sensor, 1:1 model"}, "[17]": {"target": "T2, human prostate specific membrane …", "test": "FMAT cell binding, huPSMA CHO 1A10 cells, after 1 day in human serum at 37 C", "remark": "listed apart in the source"}, "[18]": {"target": "T2, human prostate specific membrane …", "test": "FMAT cell binding, huPSMA CHO 1A10 cells, after 0 days in human serum at 37 C", "remark": "listed apart in the source"}, "[19]": {"target": "T2, human prostate specific membrane …", "test": "cell-based or functional assay", "remark": "listed apart in the source"}, "[20]": {"target": "T3, cynomolgus PSMA, full-length, on CHO …", "test": "cell-based or functional assay", "remark": "listed apart in the source"}, "[21]": {"target": "T2, human prostate specific membrane …", "test": "FMAT cell binding, huPSMA CHO 1A10 cells, after 7 days in human serum at 37 C", "remark": "listed apart in the source"}, "[22]": {"target": "T3, cynomolgus PSMA, full-length, on CHO …", "test": "FMAT direct binding on CHO cells expressing cynomolgus PSMA, VH kept 8 days at 40 °C, FL2 median mean fluorescence"}, "[23]": {"target": "T3, cynomolgus PSMA, full-length, on CHO …", "test": "FMAT direct binding on CHO cells expressing cynomolgus PSMA, VH not heated (4 °C, day 0), FL2 median mean fluorescence"}, "[24]": {"target": "T2, human prostate specific membrane …", "test": "FMAT cell binding, huPSMA CHO 1A10 cells, after 4 days in human serum at 37 C", "remark": "listed apart in the source"}, "[25]": {"target": "T1, recombinant human PSMA (R&D, cat. no. …)", "test": "HTRF binding assay: His-Myc tagged VH, 3 nM biotinylated PSMA, streptavidin cryptate and anti-Myc Alexa Fluor 647; VH kept 0-7 days at 37 °C in cynomolgus monkey serum; Delta F% binding signal"}, "[26]": {"target": "T1, recombinant human PSMA (R&D, cat. no. …)", "test": "Octet RED384 BLI, PSMA on sensor, VH series from 0.375 ug/ml", "remark": "listed apart in the source"}, "[27]": {"target": "T3, cynomolgus PSMA, full-length, on CHO …", "test": "FMAT Mirrorball direct cell binding, purified His-tagged VH titrated on CHO cells expressing cynomolgus PSMA, FL2 median binding signal [panel cynoPSMA-CHO binding]"}, "[28]": {"target": "T3, cynomolgus PSMA, full-length, on CHO …", "test": "cell-based or functional assay", "remark": "listed apart in the source"}, "[29]": {"target": "T1, recombinant human PSMA (R&D, cat. no. …)", "test": "Octet RED384 BLI, PSMA on sensor, VH purified from periplasmic extracts"}, "[30]": {"target": "T2, human prostate specific membrane …", "test": "FMAT Mirrorball direct cell binding, purified His-tagged VH titrated on LNCap cells, FL2 median binding signal [panel LNCap cell binding]"}, "[31]": {"target": "T2, human prostate specific membrane …", "test": "FMAT Mirrorball direct cell binding, purified His-tagged VH titrated on CHO cells expressing human PSMA, FL2 median binding signal [panel huPSMA-CHO binding]"}}, "note": "Several values for one entry are separate records, joined by “and”; a condition that tells them apart may be missing. Equal entries are not always repeated."}
{"binder": "B1", "values": [{"measurement": "Kd", "setting": "[1]", "value": 850, "unit": "pM"}, {"measurement": "koff", "setting": "[1]", "value": 0.00068, "unit": "s⁻¹"}, {"measurement": "pHrodo Green internalization assay, human PSMA Average EC50 (M)", "setting": "[2]", "value": "5e-10 M and 1.2e-09 M"}, {"measurement": "Kd", "setting": "[3]", "value": 1950, "unit": "pM"}, {"measurement": "EC50", "setting": "[4]", "value": "486 pM and 220 pM"}, {"measurement": "Kd", "setting": "[5]", "value": 1950, "unit": "pM"}, {"measurement": "koff", "setting": "[5]", "value": 0.00104, "unit": "s⁻¹"}, {"measurement": "His-ZAP cell killing, human PSMA Average EC50", "setting": "[6]", "value": "26 pM and 40 pM"}, {"measurement": "His-ZAP cell killing, cyno PSMA EC50", "setting": "[7]", "value": 1400, "unit": "pM"}, {"measurement": "EC50", "setting": "[8]", "value": "496 pM and 250 pM"}, {"measurement": "EC50", "setting": "[9]", "value": 103, "unit": "pM"}, {"measurement": "EC50", "setting": "[10]", "value": 147, "unit": "pM"}, {"measurement": "EC50", "setting": "[11]", "value": 94.5, "unit": "pM"}, {"measurement": "EC50", "setting": "[12]", "value": "542 pM and 270 pM"}, {"measurement": "koff", "setting": "[13]", "value": 0.00104, "unit": "s⁻¹"}, {"measurement": "EC50", "setting": "[14]", "value": 310, "unit": "pM"}, {"measurement": "EC50", "setting": "[15]", "value": "409 pM and 170 pM"}]}
{"binder": "B2", "values": [{"measurement": "pHrodo Green internalization assay, human PSMA Average EC50 (M)", "setting": "[2]", "value": "8e-10", "unit": "M"}, {"measurement": "Kd", "setting": "[16]", "value": 1640, "unit": "pM"}, {"measurement": "koff", "setting": "[16]", "value": 0.000456, "unit": "s⁻¹"}, {"measurement": "His-ZAP cell killing, human PSMA Average EC50", "setting": "[6]", "value": 14, "unit": "pM"}, {"measurement": "His-ZAP cell killing, cyno PSMA EC50", "setting": "[7]", "value": 52, "unit": "pM"}, {"measurement": "EC50", "setting": "[17]", "value": 254, "unit": "pM"}, {"measurement": "EC50", "setting": "[18]", "value": 249, "unit": "pM"}, {"measurement": "EC50", "setting": "[9]", "value": 110, "unit": "pM"}, {"measurement": "IC50 (read off the curve): His-ZAP saporin cell killing, human-PSMA CHO, % Control (Cell Titer-Glo)", "setting": "[19]", "value": "~40", "unit": "pM"}, {"measurement": "IC50 (read off the curve): His-ZAP saporin cell killing, cyno-PSMA CHO, % Control (Cell Titer-Glo)", "setting": "[20]", "value": "~100", "unit": "pM"}, {"measurement": "EC50", "setting": "[21]", "value": 301, "unit": "pM"}, {"measurement": "EC50", "setting": "[10]", "value": 60.7, "unit": "pM"}, {"measurement": "EC50 (read off the curve)", "setting": "[22]", "value": "~2000", "unit": "pM"}, {"measurement": "EC50", "setting": "[11]", "value": 230, "unit": "pM"}, {"measurement": "EC50 (read off the curve)", "setting": "[23]", "value": "~2000", "unit": "pM"}, {"measurement": "EC50", "setting": "[24]", "value": 260, "unit": "pM"}, {"measurement": "EC50 (read off the curve)", "setting": "[25]", "value": "~1000", "unit": "pM"}, {"measurement": "Kd", "setting": "[26]", "value": 320, "unit": "pM"}, {"measurement": "koff", "setting": "[26]", "value": 0.000228, "unit": "s⁻¹"}, {"measurement": "EC50 (read off the curve)", "setting": "[27]", "value": "~600", "unit": "pM"}, {"measurement": "EC50", "setting": "[14]", "value": 367, "unit": "pM"}]}
{"binder": "B3", "values": [{"measurement": "EC50 (read off the curve): pHrodo Green internalisation signal FL2, CHO cells expressing cynomolgus PSMA", "setting": "[28]", "value": "~2e-09", "unit": "M"}, {"measurement": "Kd", "setting": "[29]", "value": 30000, "unit": "pM"}, {"measurement": "koff", "setting": "[29]", "value": 0.0091, "unit": "s⁻¹"}]}
{"binder": "B4", "values": [{"measurement": "Kd", "setting": "[16]", "value": 3780, "unit": "pM"}, {"measurement": "koff", "setting": "[16]", "value": 0.000452, "unit": "s⁻¹"}, {"measurement": "EC50 (read off the curve)", "setting": "[30]", "value": "~2000", "unit": "pM"}, {"measurement": "EC50 (read off the curve)", "setting": "[31]", "value": "~2000", "unit": "pM"}, {"measurement": "EC50 (read off the curve)", "setting": "[27]", "value": "~2000", "unit": "pM"}]}
